Measurements taken from patent publication US12365738B2, “Method of treating an interleukin-11-associated or -mediated fibrotic disease or condition by administering an anti-interleukin-11 receptor subunit alpha (IL-11RA) antibody” (Lassen Therapeutics, Inc., priority 2021, dated 2025).
Residue numbers refer to the chain shown, from its start. In names and notes the source's numbering stands.

Assays:
[1] = tested on: type VI collagen formation (PRO-C6) in fibrotic human PCLS; test: Fibrotic human precision-cut lung slice (PCLS) model, PRO-C6 ECM remodeling biomarker; format: cell-based; details: for median levels of PRO-C6 compared to the no treatment (media) control: pooled data, all donors and regions, mAb5 0.3, 3.0, 30 μg/mL, nintedanib 1 μM, isotype control 30 μg/mL
Description: Tissue slices were prepared from the subpleural and central region of the fibrotic lung from two human end-stage donors with pulmonary fibrosis (IPF and secondary fibrosis) (see, for example, Hess et al., Toxicol In Vitro. 32:347-61, 2016). For both donors, lung tissue samples from two different regional areas (subpleural and central) were used to generate tissue cores used for PCLS. Adjacent cores were used to achieve serial PCLS for the analysis of one treatment as compared to medium treated PCLS from the same cores. This enables the comparison of densely packed fibrotic areas with fibrotic foci with less affected areas. To ensure the fibrotic status, clinical/demographic information for each patient is provided.
Each treatment was tested with three replicates for each lung region and for each donor.
Preparation and incubation of precision-cut lung slices. Lung lobes were canuled and filled with 37° C. warm 2% low-melting agarose/medium solution. Filled lobes were cooled on ice to polymerise agarose. Tissue cores with a diameter of 8 mm were prepared and cut into approximately 300 μm thick slices using a microtome (Krumdieck tissue slicer, Alabama Research and Development, Muniford, AL, USA or Vibratome OTS-5000, Science Services GmbH, Munich) in Earle's Balanced Salts Solution (EBSS). Tissue slices were incubated in Dulbecco's modified Eagle's medium/nutrient mixture F-12 Ham (DMEM) with L-glutamine and 15 mM HEPES without phenol red. Tissue slices were transferred into petri dishes and washed with DMEM for 2 hours. Medium was changed four times every 30 minutes in order to remove cell debris.
Two PCLS per well were left over night in 500 μL DMEM in 24-well plates for a final washing step. Next day, PCLS were treated with experimental treatments or controls (see Table E5) in 250 μl DMEM/F-12 culture medium for 48 hours under normal cell culture conditions (37° C., 5% CO2). Medium contained 100 units/mL penicillin and 100 μg/mL streptomycin and was not supplemented with fetal calf serum. […]
Extracellular matrix remodeling evaluation. Biomarkers that reflect ECM remodeling were assessed in supernatant by Nordic Bioscience using the following competitive ELISA: PRO-C6 (C-terminal of type VI collagen C5 domain released as type VI collagen is incorporated into the matrix; measured on mesoscale platform [hsPRO-C6]): Reflects type VI collagen formation. […]
Statistics. […] Pooled data are presented as percentage of the “no treatment” control, calculated for individual regions and donors. Statistical significant differences were evaluated on pooled data by Kruskal-Wallis with Dunn's multiple comparisons test, comparing to the “no treatment” control. […]

[2] = target: T1, hIL-11Rα (Homo sapiens, UniProt Q14626); test: Kinetic binding analysis by biolayer interferometry (protein G biosensors, Octet RED96e)
T1 sequence (Q14626 23-422): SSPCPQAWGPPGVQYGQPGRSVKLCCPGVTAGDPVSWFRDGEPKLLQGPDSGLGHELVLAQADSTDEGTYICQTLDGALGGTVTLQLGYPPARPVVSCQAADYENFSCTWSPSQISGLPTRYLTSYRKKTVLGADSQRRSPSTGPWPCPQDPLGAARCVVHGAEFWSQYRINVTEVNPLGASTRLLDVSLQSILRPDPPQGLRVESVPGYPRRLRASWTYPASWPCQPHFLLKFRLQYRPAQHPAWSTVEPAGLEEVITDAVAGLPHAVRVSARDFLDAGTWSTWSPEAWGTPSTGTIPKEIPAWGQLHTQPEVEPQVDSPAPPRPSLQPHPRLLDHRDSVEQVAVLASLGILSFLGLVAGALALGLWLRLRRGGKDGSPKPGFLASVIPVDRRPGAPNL
Description: Association was carried out in the presence of a 2-fold dilution series of hIL-11Rα and was allowed to proceed for 120 seconds; dissociation was measured for 300 to 1200 seconds.

[3] = tested on: IL-11 signaling (STAT3 Reporter (Luciferase)-HEK293 cell line); test: Cell-based STAT3 reporter (luciferase) HEK293 assay for inhibiting IL-11 signaling; set-up: species or system human
Description: Further testing of the lead mAbs was carried out using a cell-based reporter assay. IL-11 is reported to signal through the STAT3 and ERK pathways. Therefore, a STAT3 reporter cell line in which firefly luciferase gene expression is driven by STAT3 response elements located upstream of a minimal TATA promoter was selected to analyze mAb functional activity. In these cells, IL-11 can activate the endogenous STAT3 allowing it to bind to the STAT3 response elements, inducing transcription of the luciferase reporter gene and resulting in readily detectable luciferase expression. Antibodies to IL-11R which block IL-11 signaling should inhibit expression of IL-11 driven luciferase in these cells.
The STAT3 Reporter (Luciferase)—HEK293 cell line (BPS Bioscience, catalog #79800-P) was grown, passaged, and assayed as per manufacturer's protocols. Cells were added at 25,000 cells per well in a 96-well microtiter dish and incubated at 37° C. for 30-45 min. in 5% CO2 humidified air. Anti-IL-11R mAbs were added as a 3-fold dilution series in duplicate columns or rows, and plates were returned to the incubator for an additional 1 h at 37° C. after which 40 ng/mL IL-11 was added to each well to initiate the signal transduction cascade and luciferase production. Plates were incubated for 18-24 hours at 37° C. and luciferase was detected using a One-Step Luciferase Assay System (BPS Bioscience, cat. no. 60690-1) as per manufacturer's instructions.

[4] = target: T2, hIL-11R (Homo sapiens, UniProt Q14626); test: Alternate biolayer interferometry assay (AHC biosensors) ranking mAbs 16-32 against mAb5; format: binding; details: AHC biosensors
T2 sequence (Q14626 23-422): T1 sequence (Q14626 23-422)
Description: A further series of antibodies were designed in which the residue at Kabat position 31 of the heavy chain was varied (mAbs 16-32). In this case an alternate biolayer interferometry assay was used to initially rank the antibodies compared to mAb5, the closest relative in sequence to mAbs 16-32. MAbs were loaded onto anti-human constant domain (AHC) biosensors (FortéBio) in 10×kinetics buffer consisting of PBS, 0.1% BSA, 0.02% polysorbate 20 (TWEEN™) for 120 s to achieve a spectral shift value of 0.8 to 1.2 nm. Association was carried out in the presence of 2-fold dilution series of hIL-11R and was allowed to proceed for 120 s. Dilution series started 10 nM. The dissociation in 10×kinetics buffer for 1200 s. Binding kinetic measurements were taken on an Octet RED96e instrument.

## COC(=O)c1ccc2c(c1)NC(=O)/C2=C(\Nc1ccc(N(C)C(=O)CN2CCN(C)CC2)cc1)c1ccccc1 [nintedanib, Nintedanib, reference compound]
[1]; 48 hours
  median levels of PRO-C6 compared to the no treatment (media) control: decreased

B1: mAb5: anti-IL-11Rα antibody, human IgG4 (S228P), kappa; VH SEQ ID NO: 201, VL SEQ ID NO: 202 (antibody, V domains shown)
VH: EVQLLESGGGLVQPGGSLRLSCAASGFTFSWYSMTWVRQAPGKGLEWVSSIVPYGDLTQYADSVKGRFTISRDNSKNTLYLQMNSLRAEDTAVYYCAKGPGWGSFDLWGRGTLVTVSS
VL: DIQMTQSPSSLSASVGDRVTITCQASQDINNYLNWYQQKPGKAPKLLIYDASNLQTGVPSRFSGSGSGTDFTFTISSLQPEDIATYYCQQHESQSPTFGPGTKVDIK
modifications: IgG4 S228P kappa constant regions; mAb5 VH Chain; mAb5 VL Chain
[2]
  ka: 63700 M⁻¹ s⁻¹
  kd: <1e-07 s⁻¹
[3]
  potency at inhibiting IL-11 signaling relative to TS7 / 8E2 (in words): more potent at inhibiting IL-11 signaling than either of TS7 or 8E2
[1]; 0.3, 3.0, 30 μg/mL, 48 hours
  dose relation of PRO-C6 reduction: reduced PRO-C6 in a dose-dependent manner
[1]; 48 hours
  median levels of PRO-C6 compared to the no treatment (media) control: decreased
[1]; in several cases
  effects on ECM remodeling relative to nintedanib: better effects on ECM remodeling
[4]
  ka: 490000 M⁻¹ s⁻¹
  kd: 2.5e-05 s⁻¹

B2: mAb7: anti-IL-11Rα antibody, human IgG4 (S228P), kappa; VH SEQ ID NO: 205, VL SEQ ID NO: 206 (antibody, V domains shown)
VH: B1 VH with W31N, S33A, T35S
VL: B1 VL
modifications: human IgG4 S228P and kappa constant regions; mAb7 VH Chain; mAb7 VL Chain
[2]
  ka: 63500 M⁻¹ s⁻¹
  kd: <1e-07 s⁻¹
[3]
  potency at inhibiting IL-11 signaling relative to TS7 / 8E2 (in words): less potent than TS7

B3: mAb8: anti-IL-11Rα antibody, human IgG4 (S228P), kappa; VH SEQ ID NO: 207, VL SEQ ID NO: 208 (antibody, V domains shown)
VH: B1 VH with W31S, S33A, T35S
VL: B1 VL
modifications: human IgG4 S228P and kappa constant regions; mAb8 VH Chain; mAb8 VL Chain
[2]
  ka: 65100 M⁻¹ s⁻¹
  kd: <1e-07 s⁻¹
[3]
  potency at inhibiting IL-11 signaling relative to TS7 / 8E2 (in words): less potent than TS7

B4: mAb10: anti-IL-11Rα antibody, human IgG4 (S228P), kappa; VH SEQ ID NO: 211, VL SEQ ID NO: 212 (antibody, V domains shown)
VH: B1 VH with P53A
VL: B1 VL
modifications: IgG4 S228P kappa constant regions; mAb10 VH Chain; mAb10 VL Chain
[2]
  ka: 840000 M⁻¹ s⁻¹
  kd: 0.000416 s⁻¹
[3]
  potency at inhibiting IL-11 signaling relative to TS7 / 8E2 (in words): less potent than TS7

B5: mAb11: anti-IL-11Rα antibody, human IgG4 (S228P), kappa; VH SEQ ID NO: 213, VL SEQ ID NO: 214 (antibody, V domains shown)
VH: B1 VH with P53D
VL: B1 VL
modifications: IgG4 S228P kappa constant regions; mAb11 VH Chain; mAb11 VL Chain
[2]
  ka: 32900 M⁻¹ s⁻¹
  kd: 0.0181 s⁻¹
[3]
  potency at inhibiting IL-11 signaling relative to TS7 / 8E2 (in words): less potent than TS7

B6: mAb12: anti-IL-11Rα antibody, human IgG4 (S228P), kappa; VH SEQ ID NO: 215, VL SEQ ID NO: 216 (antibody, V domains shown)
VH: B1 VH with G103Y
VL: B1 VL
modifications: IgG4 S228P kappa constant regions; mAb12 VH Chain; mAb12 VL Chain
[2]
  ka: 58100 M⁻¹ s⁻¹
  kd: <1e-07 s⁻¹
[3]
  potency at inhibiting IL-11 signaling relative to TS7 / 8E2 (in words): comparable in potency to TS7
